Experimental data from patent US20100028340A1.
Where a chain is given by its changes, count along the chain named. Blank lines part the entries; values can stand above or below the binder they belong to.

What was measured:
[1] = target: T1, recombinant purified human RGM A (R&D Systems Cat# 2459-RM) (human) (UniProt Q96B86); assay: competition ELISA on coated hRGMA; competitor biotinylated chimeric 5F9
T1 sequence: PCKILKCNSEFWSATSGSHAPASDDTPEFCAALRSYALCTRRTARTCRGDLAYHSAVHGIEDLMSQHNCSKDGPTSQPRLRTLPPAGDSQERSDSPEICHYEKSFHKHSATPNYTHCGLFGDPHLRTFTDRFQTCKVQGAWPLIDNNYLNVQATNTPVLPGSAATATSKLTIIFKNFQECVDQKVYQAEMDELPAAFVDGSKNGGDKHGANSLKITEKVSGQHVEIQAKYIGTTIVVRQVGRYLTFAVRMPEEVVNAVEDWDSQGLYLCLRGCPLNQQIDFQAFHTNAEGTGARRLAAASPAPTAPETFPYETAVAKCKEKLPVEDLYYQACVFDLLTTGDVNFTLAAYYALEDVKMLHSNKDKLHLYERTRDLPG

[2] = target: T1, recombinant purified human RGM A (R&D Systems Cat# 2459-RM) (human); assay: SPR (Biacore 3000), antibody captured by anti-human IgG Fc, hRGMA in solution, 25 °C

- IC50 [1]: 0.6 µg/mL
- Kd [2]: 7.59 nM
- koff [2]: 0.00269 s⁻¹
- kon [2]: 355000 M⁻¹ s⁻¹
B1: h5F9.21 (antibody, human IgG1, V domains shown)
VH: EVQLVESGGGVVQPGRSLRLSCAASGFTFSNYGMNWIRQAPGKGLEWIGMIYYDSSEKHYADSVKGRFTISRDNSKNTLYLQMNSLRAEDTAVYYCAKGTTPDYWGQGTMVTVSS
VL: DVVLTQSPLSLPVTLGQPASISCRSSQSLEYSDGYTFLEWFLQKPGQSPQLLIYEVSNRFSGVPDRFSGSGSGTDFTLKISRVEAEDVGVYYCFQATHDPLTFGQGTKLEIKR

- IC50 [1]: 0.66 µg/mL
- Kd [2]: 5.78 nM
- koff [2]: 0.00329 s⁻¹
- kon [2]: 570000 M⁻¹ s⁻¹
B2: h5F9.25 (antibody, human IgG1, V domains shown)
VH: B1 VH with V11L, R16G
VL: B1 VL

- IC50 [1]: 0.55 µg/mL
- Kd [2]: 4.37 nM
- koff [2]: 0.00221 s⁻¹
- kon [2]: 507000 M⁻¹ s⁻¹
B3: h5F9.23 (antibody, human IgG1, V domains shown)
VH: B1 VH with V11L, R16G
VL: B1 VL with L42Q, K44R, Q50R

- Kd [2]: 3.09 nM
- koff [2]: 0.00236 s⁻¹
- kon [2]: 765000 M⁻¹ s⁻¹
B4: chimeric 5F9 (antibody, V domains shown)
VH: B1 VH with V11L, R16S, R19K, A23V, G42K, Q82E, A88S, V93I, T109V
VL: B1 VL with S7T, L9V, P12S, Q17D, P18Q, I21M, S68I, A85P, V88L, Q105S

- IC50 [1]: 1.32 µg/mL
B5: h5F9.24 (antibody, human IgG1, V domains shown)
VH: B1 VH with V11L, R16G
VL: B1 VL with L42Q, K44R, Q50R, L51R
